test: soluble on expression in E. coli; label from the status in PepcDB or PDB records

Soluble on expression in E. coli, not soluble:
MGSDKIHHHHHHMDKAKLIDLIKTNPNALVYIPNPSDELKLLAVQKNGLALKHIEHPTPEMQELALANNSRAIQFIDNPTEEMMNKAIQDSWVNLEYLQHPSETIIKLAITQAGWAIKYVKHPSEELQLLAVRRHYDSIKFIKDPCPKAQEEAVRINYDALRYIDSPTPQAELLAIRNHESAIAFVKDLSKEKILQFLGVNFLVIKYVRNDITKAELEQVLKETLGQEDVDEKYVRDFLNSSTIHKNSGQMSLDKIMFIYHYGSRKAKKVAVDEKLKI, MGSDKIHHHHHHMDKFLYIAMSGAKQGMNALAVSANNLANANTDGFKADMVQARSMQAFGEGLPTRVFSMMESPGSNFNGGPIKTTGRDLDIAVKGDGWLAVQAADGSEGYTRAGSLKIDSTGMLLNSSNRPVMGASGPIVLPIPVEKIEISANGIISVRPQGATAEVIEEVARIKLVNPGNENLMRGEDGLFRLIAGGNAPNDPGVQVESGAVEGSNVNSVHEMVAMIDIQRQYEMQVKMMKNAEEIDRASTSLMRIS, MGSDKIHHHHHHMDKGKSVKSTEKSVGMPPKTPKTDNNAHVDNEFLILQVNDAVFPIGSYTHSFGLETYIQQKKVTNKESALEYLKANLSSQFLYTEMLSLKLTYESALQQDLKKILGVEEVIMLSTSPMELRLANQKLGNRFIKTLQAMNELDMGEFFNAYAQKTKDPTHATSYGVFAASLGIELKKALRHYLYAQTSNMVINCVKSVPLSQNDGQKILLSLQSPFNQLIEKTLELDESHLCTASVQNDIKAMQHESLYSRLYMS, MGSDKIHHHHHHMDKIIGLGNALIDVLATLKDDTLLDELELPKGSMQLIDDAKLQQINTKFSQMKTHLATGGSAGNAILGLACLGAGTGFIGKVGNDHYGDFFRKNLQKNNIEDNLLTSEQLPSGVASTFISQDGERTFGTYLGAAASLKAEDLTLEMFKGYAYLFIEGYLVQDHEMILHAIELAKEAGLQICLDMASYNIVENDLEFFSLLINKYVDIVFANEEEAKAFTGEEPEEALRVIAKKCSIAIVKVGANGSYIRKGTEEIKVSAIPVEKVLDTTGAGDYFAAGFLYGLTCGYSLEKCAKIGSILSGNVIQVIGTTISPERWDEIKLNINKVLAE, MGSDKIHHHHHHMDKLIAFLKDKKITEVECVISDMTGIARGKIAPVDKFVSEKGMRLPESVLLQTVTGDFIDDEVYYQLLDDADIDFVCVPDENAVFMLPWTVEATAQVIHDCYDRMGNPIELSPRNVLKKVLKLYEDKGWEPVIAPEMEFYLTKRSDDHDLPLKPPIGRSGRPEAGRQSFSIDAANEYDPLFEDMYDWCEIQGLDIDTLIHEDGPAQMEINFSHGNALSLADQVFIFKRTLKEAALKHDVCATFMAKPVTDEPGSAMHIHQSVLDIKTGKNIFTKDDGTQSKLFLSYIAGLQQYIPELLPLMAPSANSFRRFLPGTSAPVNLEWGVENRTCGLRIPESSPQNRRIENRIPGADANCYLAIAASLLCGYIGMVDDLKPSTPVTGKSNESRTNNENCLPLTLEEALVAMQSSDACIEYLGQSFTTGFVAVKQAELENFRRVVSSWEREFLLLTV, MGSDKIHHHHHHMDKMKAITFFDLDGTLLDGTSQITPEITAAVAALKDNQILPLIATGRTLCEIQPIMKASGIDSAIVMNGQFIHYEGKTIYSDEFTTEECVSLHEHVKQRGHELAFYNERRIFCTGHTGTVKQAYDYIHSAVPEIDPTGYENDAVNMMLVLSQHGDDDEYYYERFPELTFYRNGPFSIDIVRKGVSKGSGVKNLFNTLGLNGIPTYAFGDGINDLALFEACDYGIAMGNAREELKEKATFISTKNTENGIVNGLKKFDLL, MGSDKIHHHHHHMDLGAPIGAHGNQPETEAATQCEIVLQGPTCGFPSWTRHCNIDCIRDFQPFDRLMKQGQRKTKLEFHNDGRLLAAQGDDICGPDLAFYRVTLSLQQRFDRGVEILFTFHPGHACPGSVSMAMCPRLIFMRNTMNRLLSRAQRSGDRRHALGHSGAVPATLRPFLSLICFCLVAVWMATPLRAACSGLDLRESAAPGMWAEIEAEIALTPFARGLSWVATRGDRRLHIIGTMHLNDPRHDALVAHMAPAIQAADAVLLEVNRADKARLERTLAETPSLIFITEGPTLIDRLPPEEWDEIAERAGAAGIPPFMAAKMRPWFLSLSMSVPLCARAIEDVTDGLDMKLMTLAERAGVETLSLEDPLGLFQLFDATPIEEQIKELRSYIAMAGVGADDFYTMVESYFDGEVQAYVLLQLKQFLTSESDLSVAERQAQVDDLLEALLYQRNRDWIPVIEATAGNRLVIAVGAAHLPGEAGVLALLEAEGYQIEEALR, MGSDKIHHHHHHMDNKFKNIPKRHLPQKLPFDYTSIYTDPQIIKLTTRANIAIGTYEGFLESIINPMLLISPLLSQEAVLSSKLEGTHATLKDLLNYEAGNKVDIERDELHEIINYRKALFYALENISTINNIDSKGLPLSNRIIKEMHKILLDNVRGSSKNPGNFKRSQNYIGSVSSISYTPVPAEKTPEYMSNLEQYIHYDDLDLLVQSAIIHAQFEMIHPFEDGNGRIGRLLIPLFLYYQELLSYPTFYMSSYFERDRSLYISHLSNISKDNNWKDWFEYYLEGVILSAEESTKKAQDILSLYNIMKEQVIPKLNSVSGIQLLDFIFSAPIFKAEQVSEHLKISKRTTYTLLNKLIDEGYLSTDNAQRNRTYYCPQLLSIVQ, MGSDKIHHHHHHMDNNTLDEYRAVYLTAEDLRLAASILYNAYHDDPFFVDTLSSSDKFAYEQKLRAAIREELNTLWQQKQALIGLFDGAHLMGVACVVTQKVPLGEGRYWHWRLKMLLGTGWQSTQAMMKKESTILELLPSQRCGILQFIALAPNEQGKGLGHQLVQAVVSWCDEQPNLEGIGVFTTQEAHTHLFKQHDFVSLGELVIGSVTGQLLFYTGQQDE, MGSDKIHHHHHHMDQEKTPLLDALKGYVEENVIPFHVPGHKQGRGNPELRKYIGSKVLKMDVNGMKELDYIGNPSGVIAEAQHLCAEAFGAEQAYFLVNGTSSGVQAMIMSACNPGNEIIIPRNAHKSTIGAIILSGAIPVYVQPQVNKVLGIATGVSAESIQKAIEEHPQAKAVFIINPSYYGIHSDLKSIVEISHQANMTVLADEAHGAHLYFHPEFSLNAIEAGADMSAVSLHKTGGAMTQSSVLLHQGDRISVDRVKQVLQLSYTSSASYILMLSIDVARKQLATRGQLLLNKTLALARQARQELNDIEDIYAFGKELIGSPGCADFDETKLGIHVRKLGLTGYQIERILRERYKIQIEFSDIYNALAIVSLGDRRENLRKLVAAFREIADERETKDASKWFNIPFCPEMIVTPRDAFYSPKRIVPLELSSGEISGEMIMAYPPGIPVICMGERITQEIIEYIQLLQVEGCELQGATDAGINHIKVLGSALPQASVSKSVSPSRSAYQEIPVYLSP, MGSDKIHHHHHHMDRVLFLAMTGAKHEAWQQATTANNLANVNTNAFKADLAAYRALPVVGDGAPTRTYVVDNTIGFDASQGSLQHTGNPSDFALGTPGFFAVQGADGQEAYTRDGGYVLDATGLMRTHSGLLIMGDGGPITVPAGSQVQLGSDGSVMAVPQSGANRAPQLVGQIKMVNPGPKDVYKGEDKLFHVNGGGTLPASADVKLVPETLESSNVNSVEALVQMISHGRQYELNIKMMQTSQQNDQQAAQLLSMS, MGSDKIHHHHHHMDSGMNEKTTAELEHLRGLIDGVDQQLLHLLRKRLDLVAQVGTVKHGAGLPIYAPQREAAMLAKRREEAKNMGIAPQLIEDILRRLMRESYLNEKDVGFKQVKKDLGSVVIVGGKGQLGGLFSQMLTLSGYQVNLLDKDDWQQADSLFADAGMVLVTVPIAITCELIREKLTQLPADCILADLTSIKTEPVKAMLEAHSGPVVGFHPMFGPDVGSLAKQVVVVCHGRSPEKYQWLLEQIAIWGARIVEAEPERHDSAMQLVQAMRHFSTFVYGLNLCKEEADIDTLLQFSSPIYRLELAMVGRLFAQSPELYADIIFAQQDSQHAIGDYLDNYREALELLKRGDRNEFIKQFQSVAKWFGDFAPQFQRESRIMLQSVNDMKTN, MGSDKIHHHHHHMDSLSSILKSVRLQGSVYFNACFASPWGLDLDQNQRAYFHLIIRGACYLQLGDKKEQLQGGDIIILPHGTAHQLFDDPSSVRVNATGVVPGLIDGINPFEGVGHSQDIDILCGYFNFNNSTPSYFLNALPDVIHLTQEHRTHFSFLDNALSFITQETKMKNLGREILIDRVTELLFVQIMRVYININGNEENIFSALSDRTLSEALQLMHTESDKNWTVESLAKAIGMSRSRFSEHFHNYIGETPMRYLHTCRMEVAKQKIEETESTLNIISEEVGYASDSAFKKAFKKFFGNTPSTFRQKNDK, MGSDKIHHHHHHMDVLVVGATGTLGRQIARRALDEGHRVRCLVRSPKRGNFLREWGCDLVRGDLTQPESLTFALEGIEAVIDAATTRSTDSLSCYDVDWQGKVNLIKAATEAGVQRFVFCSIIDAEKHRDVPLMDIKYCTEEFLRQSGLNYTILRLAGFMQGLIAEFAIPVLEGRTAFITQDSDPIAYLSTLDIARFAVAALTTPATEKQTLPVVGPKAWSGLEIFRLCERLSGKETKIARLPLATVSAMKRFFRFFQWGWNIADRLAFSEVMACGRPFTADMAATYTAFGIDPAEITGLESYLNDYFSVMLRRLKELEFDQKKDKKKKVPF, MGSDKIHHHHHHMDVQVYFSKVEDPRVVGRCKHKLSDILVIALASYLCGGEDYESMHELCLERGASLRPPVELPNGCPSVDTFERVLQRIEPQSLYACLQVYGKELISDLEGKHIAIDGKRLKGSKKKTGSTHILSAWVDEVSLSLAQETVAEKRNELQAIPEVLDSLDLSGAVISINAMGTQTNIAEQIIQSEADYILSLKSNQKHLYEDVQDYFTGQYRCHRYETLEKDHGRIEKRTYTTLLASEVFEEGEYSQWQGLRSLIQVEREISSLEGETRIDRQYYISSLPPEDCQLIGQYIRGHWGIENRLHWHLDVTFREDTCRARKDYSATNLNTLRKFALAIVSGHKDKLSLRKRLFKAALNIDYLKKLLKI, MGSDKIHHHHHHMDVVDELIKLHEEHVSGLLRLCGQAGWPDYGEQELKLLVQQGRFFGYQNVSGDIISCIGLFLFGRLTSIGLVIVDKEYQRLGLGRRMVNACITQTDENTAIRLCATKEGLPLYEKAGFHTAGSVRKYSCHSFQPYTKKLDAELTSFREQDFHDLTAADLAAFGGDRSNLLQQLISASCECIIARNQDGQLIGYGLSVQTPANLKFGPIIAPSSDVAAQIITRLAAGKQGPMRIDIPSEHTSLHDSLIEMGFHKDDEPPILFYQKKAPIQNGHLYALISQALG, MGSDKIHHHHHHMEANNGKMERIQEMLRMFGLSSYEAQGFAALVYHGVANADTIASTANIPRTSAYKVMESLVRKGLAKATEGRPRMFKPAKMEEIRDYYEEKLQQLFRDLKELEDNAPSRGEPQLIYTINGSQKVMEKIEEMINLTEHEIMISTPKIIEIRKQMKKPIENAIKRGVRVVFVIPPNKRVPANVIVYRRDGLIATDIVSDQIRALIAGPDLETCGYSDNPMLSMHVYQFINILINKPEIQG, MGSDKIHHHHHHMEETNEMKDSKHLISNIQSQYTRLSKGQKLIAQYILNNYDKVAFMTACKLGETVGVSESTVVRFANALGYSGYPKLQAALQELIKNKLTTVQRVEMAHDYSDDFAILNKVLKSDIDNIRSTLEEIDERAFKEASNKLLRARKIYILGMRSSFVVAQYLGFYLDIILDNVHIIRMDMGDAFEQIVRINEEDVIVAISFPRYSKKSYQIVNYAKEKGAHVISLTDSLFAPVASLADNTLLVKSNMASFVDSLVPALSISNALAISVGMKEKEDIKQHFDDLEQIWKRYSVYE
